This passage reports MVD Ke, MVD pA2 and MVD ED50 results from patent US6753317.

Non-standard residues stand in square brackets, D forms with d. *: point of attachment. des‑NH2‑α‑pyrrolidine‑1‑yl = Dmt (2',6'-dimethyl-L-tyrosine) with the α-amine replaced by pyrrolidine-1-yl, Cc1cc(O)cc(C)c1C[C@@H](C(=O)*)N1CCCC1; des‑NH2‑α‑pyrrole‑1‑yl = replacement of the α-amino group by a pyrrol-1-yl group; NH(1-Adamantyl) = C1C2CC3CC1CC(N*)(C2)C3; Dmt = Cc1cc(O)cc(C)c1C[C@H](N)C(=O)O; NH‑tetrazole‑5‑yl = n1nc(N*)n[nH]1; Tic = O=C(O)[C@@H]1Cc2ccccc2CN1; dTic = O=C(O)[C@H]1Cc2ccccc2CN1; NHtBu = CC(C)(C)N*

To fix the notation:
B1: H-Dmt-Tic-Ala-NH-tBu (peptide)
peptide: H-[Dmt]-[Tic]-Ala-NHtBu
SMILES: Cc1cc(O)cc(C)c1C[C@H](N)C(=O)N1Cc2ccccc2C[C@H]1C(=O)N[C@@H](C)C(=O)NC(C)(C)C
B2: H-Dmt-Tic-NH-1-adamantane (peptide)
peptide: H-[Dmt]-[Tic]-{NH(1-Adamantyl)}
SMILES: Cc1cc(O)cc(C)c1C[C@H](N)C(=O)N1Cc2ccccc2C[C@H]1C(=O)NC12CC3CC(CC(C3)C1)C2

The target of the test is δ-opioid receptor of the mouse vas deferens (MVD) (mouse), P32300. Briefly: cell-based or functional assay.
Sequence of δ-opioid receptor of the mouse vas deferens (MVD) (mouse), P32300 (P32300 whole entry, stated change not applied): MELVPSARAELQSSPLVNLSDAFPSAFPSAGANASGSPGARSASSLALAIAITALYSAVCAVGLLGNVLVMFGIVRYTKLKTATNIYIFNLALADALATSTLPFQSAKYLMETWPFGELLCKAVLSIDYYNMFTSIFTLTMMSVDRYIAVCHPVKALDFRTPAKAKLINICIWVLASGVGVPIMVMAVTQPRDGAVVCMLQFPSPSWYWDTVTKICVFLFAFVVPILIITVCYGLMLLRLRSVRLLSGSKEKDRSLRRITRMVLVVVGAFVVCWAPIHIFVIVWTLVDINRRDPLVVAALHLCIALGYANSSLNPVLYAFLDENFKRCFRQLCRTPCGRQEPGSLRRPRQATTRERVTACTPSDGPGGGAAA
H-[Dmt]-[dTic]-{NH(1-Adamantyl)} [H-Dmt-D-Tic-NH-1-adamantane] yielded an MVD Ke above 10000 nM. The molecule B1 gave an MVD Ke of 0.69 nM and an MVD pA2 of 9.16. For H-[Dmt]-[Tic]-Ala-{NH(1-Adamantyl)} [H-Dmt-Tic-Ala-NH-1-adamantane], in that order: 0.51 nM and 9.29.

For the molecule H-[Dmt]-[Tic]-Ala-NHMe (SMILES CNC(=O)[C@H](C)NC(=O)[C@@H]1Cc2ccccc2CN1C(=O)[C@@H](N)Cc1c(C)cc(O)cc1C) [H-Dmt-Tic-Ala-NHMe], the MVD ED50 is 1290 nM. On to H-[Dmt]-[Tic]-Ala-OH [H-Dmt-Tic-Ala-OH], for which the MVD Ke worked out at 4 nM and the MVD pA2 is 8.4. {des‑NH2‑α‑pyrrolidine‑1‑yl}-[Dmt]-[Tic]-OH [[des-NH2-α-pyrrolidine-1-yl]-Dmt-Tic-OH]: the MVD Ke stood at 121 nM and the MVD pA2 was 6.9. For H-[Dmt]-[Tic]-NH2 [H-Dmt-Tic-NH2], in that order: 42 nM and 7.2.

{des‑NH2‑α‑pyrrole‑1‑yl}-[Dmt]-[Tic]-OH [[des-NH2-α-pyrrole-1-yl]-Dmt-Tic-OH] came in with an MVD Ke of 408 nM and an MVD pA2 of 6.39. In turn, {N,N‑dimethyl}-[Dmt]-[dTic]-{NH(1-Adamantyl)} [N,N(Me)2-Dmt-D-Tic-NH-1-adamantane] showed an MVD Ke of 128 nM and an MVD pA2 of 6.91. H-[Dmt]-[Tic]-Ala-NH2 [H-Dmt-Tic-Ala-NH2] registered an MVD Ke of 9 nM and an MVD pA2 of 8. For {N,N‑dimethyl}-[Dmt]-[Tic]-OH (also: tritium-labelled form used as radioligand) [N,N(Me)2-Dmt-Tic-OH] the same measures were 0.28 nM and 9.4. For H-[Dmt]-[Tic]-NHMe [H-Dmt-Tic-NHMe], the MVD ED50 came out at 21200 nM and the MVD Ke is above 10000 nM.

The molecule {N,N‑dimethyl}-[Dmt]-[Tic]-NHMe [N,N(Me)2-Dmt-Tic-NHMe] displayed an MVD Ke of 0.41 nM and an MVD pA2 of 9.39. H-[Dmt]-[Tic]-{NH‑tetrazole‑5‑yl} [H-Dmt-Tic-NH-tetrazole-5-yl] had an MVD Ke of 36.3 nM and an MVD pA2 of 7.44. Take B2: the MVD ED50 was 870 nM and the MVD Ke was above 10000 nM. {N,N‑dimethyl}-[Dmt]-[Tic]-{NH(1-Adamantyl)} [N,N(Me)2-Dmt-Tic-NH-1-adamantane] came in with an MVD Ke of 0.87 nM and an MVD pA2 of 9.06.
